Test results published in PMC5913134, “The IL-33-PIN1-IRAK-M axis is critical for type 2 immunity in IL-33-induced allergic airway inflammation” (Nature Communications, 2018).

Experiments:
[1] = assay type: physicochemical
Excerpt: The IRAK-M[1–119] gene was encoded into the pMAL-c2X vector with N-terminal fusion partner MBP, separated by a Factor XA cleavage site. The R56D and Y61D mutations were achieved using this vector, a single primer (forward primer, with mutations underlined: 5’ […] 3’) and the BIO RAD-iProof High-Fidelity DNA Polymerase to generate expression plasmid pMAL-c2X encoding the MBP- IRAK-M[1-119:R56D,Y61D] fusion protein, with a Factor XA cut site between MBP and IRAK-M[1-119:R56D,Y61D]. To produce uniformly ^15N-labeled MBP-IRAK-M[1-119:R56D,Y61D] in E. coli, transformed cells were grown in M9 minimal media with ^15NH4Cl as the sole nitrogen source, and were induced at OD600 by adding 0.4 mM final concentration of IPTG at 25 °C for 20~22 h. Cells were harvested by centrifugation at 3500 g, the cell pellet was dissolved in IRAK-M wash buffer (20 mM Tris, 200 mM NaCl, 1 mM EDTA, and 0.2 mM TCEP, pH 7.4), and sonicated on ice. Cell debris was removed by centrifugation, the supernatant was incubated with 5 mL of Amylose Resin (BioLabs) pre-equilibrated with IRAK-M wash buffer. The column was washed with 4 bed volumes of IRAK-M wash buffer, and the fusion protein was eluted with 2 bed volumes of elution buffer (10 mM of Maltose added to IRAK-M wash buffer). […] IRAK-M[1-119:R56D,Y61D] concentration was measured by UV absorption at 280 nm (extinction coefficient = 25105 cm^-1 M^-1). […]

WT and PIN1 KO mice = assay: OVA-induced allergic asthma in mice; assay type: in vivo, mouse; conditions: OVA-challenged PIN1 KO vs WT mice
Experimental: Fig. 1 PIN1 is required for IL-33 to induces TH2 polarization and allergic inflammation. a 5 and15 min after IL-33 treatment of DC2.4 cells, cells were extracted and PIN1 activity was measured as previously described. Inset: PIN1 was immune precipitated and immune blotted for PIN1 or Ser71 phosphorylation as indicated. b WT and PIN1 KO MEF’s were treated with different concentrations of IL-33 for 24 h and the medium was measured for IL-6 secretion. c WT and PIN1 KO mice were treated with 200 ng/mice/day for 4 consecutive days and the BALF was examined for IL-4, 5, 6 and 13 by ELISA. d H&E staining representative of lungs from WT and PIN1 KO mice treated with IL-33 (n = 4). Scale bar = 50 µm. e Total cell number in the BALF of WT and PIN1 KO mice was measured using HEMAVET multispecies hematology analyzer. f Eosinophil cell number in the BALF of WT and PIN1 KO mice was measured using HEMAVET multispecies hematology analyzer. g Representative H&E staining of lung sections from WT and PIN1 KO mice after OVA-induced allergic asthma (n = 4). Scale bar = 50 µm. h IL-4, -5, -13 and IL-33 levels in the BALF of WT and PIN1 KO mice after OVA-induced allergic asthma. The groups were compared using Mann-Whitney U test (i) Total cell number in the BALF of WT and PIN1 KO mice before and after OVA-induced allergic asthma. The data were analyzed by a Student’s two-tailed t test unless stated otherwise, and the values are reported as mean ± standard errors of the means (SEM). *- statistical significance (P < 0.05), **- significance (P < 0.01)

IRAK-M [2] = assay: IRAK-M protein stability, cycloheximide chase; assay type: cell-based; conditions: mutant IRAK-M, WT MEFs; reproduced in DC2.4 cells
Experimental: Fig. 4 PIN1 increases IRAK-M protein stabilization. a After IRAK-M and GFP were coexpressed in WT and PIN1 KO MEFs for 24 h, cells were split equally into 5 dishes. 24 h later cells were treated with cyclohexamide and harvested to monitor IRAK-M, GFP and PIN1 levels at the time points indicated. b Quantification of 3 independent experiments as in a. c WT MEFs stably expressing the TET on inducible short hairpin for PIN1 (shPin1) or pLKO as a control, were expressed with IRAK-M, followed by induction with Doxycycline for 18 h prior to the cyclohexamide chase. d Quantification of 3 independent experiments as in c. e BMDCs from WT or PIN1 KO mice were treated with IL-33 and the levels of IRAK-M were monitored at different time points after induction. f Quantification of 3 independent experiments as in e. g PIN1 KO MEFs were expressed with IRAK-M alone or in combination with PIN1 or its mutants W34A or K63A for 24 h, followed by the cyclohexamide chase to assay IRAK-M stability. h Quantification of 3 independent experiments as in g. i IRAK-M or its different mutants; S110A, S110E and P111A were expressed in WT MEFs, followed by the cyclohexamide chase to assay IRAK-M stability. j Quantification of 3 independent experiments as in i. k IRAK-M or its different mutants were stably expressed in DC2.4 cells, followed by the cyclohexamide chase to monitor IRAK-M stability. l Quantification of 3 independent experiments as in k. The data were analyzed by a Student’s two-tailed t test and the values are reported as mean ± standard errors of the means (SEM). *- statistical significance (P < 0.05), **- significance (P < 0.01)

IRAK-M [3] = assay: IRAK-M nuclear localization in DC2.4 cells; assay type: cell-based, C57BL/6; conditions: stably expressed in DC2.4 cells
Experimental: Suppl em enta ry Figur e 3. a DAPI IR AK-M Pin1 Mergeb […]
Supplementary Figure 3. Pin1 targets IRAK-M and promotes its nuclear translocation upon IL-33 induction.
(a) Immunostaining for IRAK-M and Pin1 in DC2.4 cells before and after IL-33 treatment. ( b) DC2.4 cells were treated with IL-33 and subjected to nuclear/cytoplasmic fractionation, followed by Western blot for IRAK-M with actin as a cytoplasmic marker and Fox1 as a nuclear marker. C- cytoplasmic; N- Nuclear.
(c) Cytospin slides from BALF of the treated WT mice as indicated, were co stained for DC205 and IRAK-M.
(d) IRAK-M or its mutants S110E or P111A were stably expressed in DC2.4 cells and their localization and Pin1 localization were monitored by immunostaining. (e) GFP-IRAK-M were expressed in Pin1 KO MEFs either with or without RFP-Pin1 as indicated, and their localization was monitored. Scale = 50 µm.
(also on this page, place not known: Control +IL-33: b DAPIe MergeGFP RFP GFP- GFP-IRAK-M/ RFP MergeIRAK-M Pin1DAPI ControlIL-33 Mergec Supplementary Figure IRAK-M IRAK-M (b) IL-33 IRAK-M IRAK-M Pin1) […]

PIN1-IRAK-M interaction = assay: Co-immunoprecipitation of PIN1 and IRAK-M; assay type: binding; conditions: stably expressing DC2.4 cells, with/without IL-33
Experimental: (§1) Fig. 2 IL-33 induces IRAK-M phosphorylation and binding to PIN1. a GST PIN1 pulldown assay with DC2.4 cell extracts either non-treated or treated with IL-33 (100 ng/ml) or LPS (100ng/ml) for 1 h. […] The cells were washed with fresh medium and treated with 100 ng/ml IL-33 for the indicated times prior to IRAK-M immunoprecipitation. d DC2.4 cells stably expressing IRAK-M were treated with IL-33 and at the indicated time points were subjected to CO-IP using anti-PIN1 antibody and blotted for IRAK-M. e HEK293 cells were transfected with different IRAK-M constructs expressing the N’ terminal domain (aa1-220), the middle portion of the protein (aa220-440) or the C’ terminal domain (aa 440-630), and then treated with IL-33, followed by CO-IP for PIN1. f DC2.4 cells stably expressing IRAK-M were treated with IL-33 and subjected to GST or GST-PIN1 pull-down.
Cells from one 10-cm dish were homogenized in lysis buffer containing 150 mM NaCl, 1% NP-40, 0.5% deoxycholate, 0.1% SDS, 50 mM Tris-HCl (pH 7.7), 1 mM phenylmethylsulfonyl fluoride (PMSF), 1 mM dithiothreitol, and protease inhibitors. Clarified supernatants were incubated with pre incubated immobilized beads rProtein A agarose beads (RepliGen) premixed with PIN1, GFP or IRAK-M antibody or, as a control, IgG overnight at 4 °C. The beads were washed extensively with lysis buffer before elution in SDS sample buffer.

IRAK-M [4] = assay: IRAK-M phosphorylation in DC2.4 cells; assay type: cell-based, C57BL/6; conditions: DC2.4 stably expressing mutant, IL-33
Experimental: as §1

B1: IRAK-M[1–119]: recombinant IRAK-M residues 1–119 including the DD (protein, UniProt Q8K4B2 1-119, looked up, fragment)
chain: MAGRCGARGALSPQLLLFDLPPALLGELCGILDSCDGPLGWRGLAERLSNSWLDVRHIEKYVNQGKSGTRELLWSWAQKNKTIGDLLEVLQDMGHQRAIHLIINYGVSWTPSVQTHHEL
- solubility of cleaved protein [1]: precipitated under all conditions explored

B2: OVA: ovalbumin (OVA), inducer of model of allergic asthma (protein, UniProt P01012 2-386, looked up)
Ovalbumin: GSIGAASMEFCFDVFKELKVHHANENIFYCPIAIMSALAMVYLGAKDSTRTQINKVVRFDKLPGFGDSIEAQCGTSVNVHSSLRDILNQITKPNDVYSFSLASRLYAEERYPILPEYLQCVKELYRGGLEPINFQTAADQARELINSWVESQTNGIIRNVLQPSSVDSQTAMVLVNAIVFKGLWEKAFKDEDTQAMPFRVTEQESKPVQMMYQIGLFRVASMASEKMKILELPFASGTMSMLVLLPDEVSGLEQLESIINFEKLTEWTSSNVMEERKIKVYLPRMKMEEKYNLTSVLMAMGITDVFSSSANLSGISSAESLKISQAVHAAHAEINEAGREVVGSAEAGVDAASVSEEFRADHPFLFCIKHIATNAVLFFGRCVSP
- BALF total cells count (WT and PIN1 KO mice): reduced BALF total cells count
- TH2 cytokine levels in BALF (WT and PIN1 KO mice): reduced TH2 cytokine levels
- lung inflammation (WT and PIN1 KO mice): reduced lung inflammation

B3: S110E: IRAK-M full protein phosphomimetic mutant S110E (protein)
chain: MAGNCGARGALSAHTLLFDLPPALLGELCAVLDSCDGALGWRGLAERLSSSWLDVRHIEKYVDQGKSGTRELLWSWAQKNKTIGDLLQVLQEMGHRRAIHLITNYGAVLEPSEKSYQEGGFPNILFKETANVTVDNVLIPEHNEKGILLKSSISFQNIIEGTRNFHKDFLIGEGEIFEVYRVEIQNLTYAVKLFKQEKKMQCKKHWKRFLSELEVLLLFHHPNILELAAYFTETEKFCLIYPYMRNGTLFDRLQCVGDTAPLPWHIRIGILIGISKAIHYLHNVQPCSVICGSISSANILLDDQFQPKLTDFAMAHFRSHLEHQSCTINMTSSSSKHLWYMPEEYIRQGKLSIKTDVYSFGIVIMEVLTGCRVVLDDPKHIQLRDLLRELMEKRGLDSCLSFLDKKVPPCPRNFSAKLFCLAGRCAATRAKLRPSMDEVLNTLESTQASLYFAEDPPTSLKSFRCPSPLFLENVPSIPVEDDESQNNNLLPSDEGLRIDRMTQKTPFECSQSEVMFLSLDKKPESKRNEEACNMPSSSCEESWFPKYIVPSQDLRPYKVNIDPSSEAPGHSCRSRPVESSCSSKFSWDEYEQYKKE
- resistance of IRAK-M to degradation (IRAK-M [2]): completely resistant to degradation
- nuclear localization of mutant IRAK-M (IRAK-M [3]): higher nuclear localization
- PIN1 interaction (CO-IP), IRAK-M mutants (PIN1-IRAK-M interaction): much weaker PIN1 interaction was evident before IL-33 stimulation

B4: P111A: IRAK-M mutant that eliminates the PIN1 consensus motif (protein)
chain: MAGNCGARGALSAHTLLFDLPPALLGELCAVLDSCDGALGWRGLAERLSSSWLDVRHIEKYVDQGKSGTRELLWSWAQKNKTIGDLLQVLQEMGHRRAIHLITNYGAVLSASEKSYQEGGFPNILFKETANVTVDNVLIPEHNEKGILLKSSISFQNIIEGTRNFHKDFLIGEGEIFEVYRVEIQNLTYAVKLFKQEKKMQCKKHWKRFLSELEVLLLFHHPNILELAAYFTETEKFCLIYPYMRNGTLFDRLQCVGDTAPLPWHIRIGILIGISKAIHYLHNVQPCSVICGSISSANILLDDQFQPKLTDFAMAHFRSHLEHQSCTINMTSSSSKHLWYMPEEYIRQGKLSIKTDVYSFGIVIMEVLTGCRVVLDDPKHIQLRDLLRELMEKRGLDSCLSFLDKKVPPCPRNFSAKLFCLAGRCAATRAKLRPSMDEVLNTLESTQASLYFAEDPPTSLKSFRCPSPLFLENVPSIPVEDDESQNNNLLPSDEGLRIDRMTQKTPFECSQSEVMFLSLDKKPESKRNEEACNMPSSSCEESWFPKYIVPSQDLRPYKVNIDPSSEAPGHSCRSRPVESSCSSKFSWDEYEQYKKE
- decrease of IRAK-M protein stability (IRAK-M [2]): ~ 50%
- PIN1 interaction (CO-IP), IRAK-M mutants (PIN1-IRAK-M interaction): totally abolished
- IRAK-M phosphorylation (mutant) (IRAK-M [4]): totally abolished
